The Kd is the concentration at which binding is half-saturated.

Experiment [1] addresses T1, human serum albumin (human, UniProt P02768 25-609).
T1 construct: also called HSA
The experiment in a line: solution ELISA, KD 310 nM against 7.5 nM. As for the experimental part:
(§1) A Nunc plate was blocked O/N with PBS+2% skimmed milk in PBS at 4° C. […] In addition, a ‘calibrator’ dilution series of CPAB (seven 3-fold dilutions starting at 100 nM plus a blank) in 100 mM TRIS+100 mM NaCl+1% BSA at pH 7.4 was prepared. The albumin-CPAB mixtures and the calibrator series were then transferred to the ELISA plate in duplicate (two columns for each series) and incubated for another 30 min at RT while shaking. Detection of plate-bound CPAB was performed with 1/5000 anti-V5-HRP (Invitrogen. R961-25) in PBS+0.1% BSA for 30 min at RT while shaking. After each incubation step, the plate was washed 4× with PBS containing 0.05% Tween 20.

The target in experiment [2] is T2, GST-tagged MCL-1 (GST-MCL-1 fusion protein, MCL-1 residues Asp172-Gly327) (human, UniProt Q07820 173-327).
T2 construct: not shown: Glutathione S-transferase fusion partner from the pET42 vector (Novagen)
T2 sequence (Q07820 173-327): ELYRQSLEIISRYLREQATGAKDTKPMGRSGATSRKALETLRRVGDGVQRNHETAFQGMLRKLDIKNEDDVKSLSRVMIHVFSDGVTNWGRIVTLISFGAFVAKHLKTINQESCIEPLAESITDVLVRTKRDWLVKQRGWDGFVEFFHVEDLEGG
The experiment in a line: solution ELISA, free GST-MCL-1 captured on Alphabody phage. As for the experimental part: A Nunc plate was coated with 1 μg/mL anti-M13 (Fischer Scientific) in PBS for 2 h at room temperature (RT). The plate was then blocked with 2% skimmed milk in PBS for 2 h at RT while shaking. […] After each incubation step, the plate was washed 4× with PBS containing 0.05% Tween 20, except after the incubation step of the mixture and calibrator samples where the plate was washed 12 times. The plate was developed with Sure Blue and the reaction was stopped with H₂SO₄. Optical densities (ODs) were read at 450 nm.
A general note: An ELISA detects its analyte on a solid surface through an enzyme-linked reagent.

For experiment [3], the target named is MCL-1 (endogenous, in human multiple myeloma cells such as NCI-H929) (human, UniProt Q07820 1-350). The experiment in a line: cell-based or functional assay.
Chain of MCL-1 (endogenous, in human multiple myeloma cells such as NCI-H929) (Q07820 whole entry): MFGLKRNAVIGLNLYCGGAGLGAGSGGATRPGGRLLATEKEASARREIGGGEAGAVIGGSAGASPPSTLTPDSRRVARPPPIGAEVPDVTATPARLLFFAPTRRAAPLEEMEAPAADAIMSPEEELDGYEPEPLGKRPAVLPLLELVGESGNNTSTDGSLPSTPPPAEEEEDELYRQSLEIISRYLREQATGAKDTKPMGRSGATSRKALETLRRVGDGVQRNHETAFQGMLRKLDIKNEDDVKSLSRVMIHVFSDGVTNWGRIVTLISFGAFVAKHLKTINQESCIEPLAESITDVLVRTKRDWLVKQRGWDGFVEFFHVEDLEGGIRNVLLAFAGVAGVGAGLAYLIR
In a further experiment the target is T3, mouse serum albumin (mouse, UniProt P07724 25-608).
T3 construct: also called MSA
T3 sequence (P07724 25-608 limits assumed): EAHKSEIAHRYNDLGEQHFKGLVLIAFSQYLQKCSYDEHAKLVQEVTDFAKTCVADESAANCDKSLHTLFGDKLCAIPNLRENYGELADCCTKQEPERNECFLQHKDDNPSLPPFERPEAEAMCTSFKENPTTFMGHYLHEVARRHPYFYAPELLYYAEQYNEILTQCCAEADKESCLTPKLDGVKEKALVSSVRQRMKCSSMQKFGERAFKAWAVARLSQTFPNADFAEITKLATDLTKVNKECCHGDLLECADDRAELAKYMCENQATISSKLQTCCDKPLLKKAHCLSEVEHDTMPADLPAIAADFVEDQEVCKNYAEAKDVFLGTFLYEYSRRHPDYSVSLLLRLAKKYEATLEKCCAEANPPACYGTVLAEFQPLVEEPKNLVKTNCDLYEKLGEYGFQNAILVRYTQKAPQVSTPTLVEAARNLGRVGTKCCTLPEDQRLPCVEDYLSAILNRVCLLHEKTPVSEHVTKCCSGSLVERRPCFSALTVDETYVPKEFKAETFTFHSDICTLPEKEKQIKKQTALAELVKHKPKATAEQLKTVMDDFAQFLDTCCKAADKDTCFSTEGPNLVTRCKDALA
In words: solution ELISA, free CPAB detected on milk-blocked plate. As to the method: as §1

Experiment [4] has as its target T1, human serum albumin. Described as above. As to the method:
as §1

B1: Alphabody CMPX-383B (designed binder)
chain: MGHHHHHHHHHHSSGHIEGRHGPRPRPRPRPRPRPRPGGMSTEQIQKRTAAIQKRIAAIQKRIYAMTASGGAGAAGAGAGMSIEEITKQIAAIQLRIVGDQVQIAYQTASGAGAGAGGMSTEEIQKQIAAIETQICKIEAAIELKEAGITSDFYFELINKAKTCEAVEALKEHILAAHTPRPRPRPRPRPRPRPGSGKPIPNPLLGLDST
notes: an engineered disulfide bond links helix E to helix C; Has Ala at the position called 40
Regarding B1, in the experiment with human serum albumin [1], the “fold reduction in affinity against the Gly40 form” value turned out to be 40 fold. Besides, the Kd is 0.028 nM in experiment [2], 2250 nM in the experiment with mouse serum albumin and 310 nM in the experiment with human serum albumin [4]. Also, the “in vitro IC50 on MM cell line MOLP-8” value in experiment [3] amounted to 820 nM. Moreover, the “in vitro IC50 on MM cell line NCI-H929” value in experiment [3] worked out at 450 nM.

B2: CMPX_383B_Gly40 (designed binder)
chain: MGHHHHHHHHHHSSGHIEGRHGPRPRPRPRPRPRPRPGGMSTEQIQKRTAAIQKRIAAIQKRIYAMTASGGAGAAGAGAGMSIEEITKQIAAIQLRIVGDQVQIAYQTASGAGAGAGGMSTEEIQKQIAAIETQICKIEAAIELKEAGITSDFYFELINKAKTCEGVEALKEHILAAHTPRPRPRPRPRPRPRPGSGKPIPNPLLGLDST
For B2, the Kd came out at 0.043 nM in experiment [2], 298 nM in the experiment with mouse serum albumin and 7.5 nM with human serum albumin [4].

Values taken from patent US20240317807A1 (COMPLIX, published 2024).
